According to article PMC8718266:

Target: HA-FBW7 (UniProt Q8VBV4)
Experiment: FLAG IP, HA immunoblot
Conditions: reference: wild type

Row | Substance | binding against the reference (sites T243,S247) | binding against the reference (sites T171,S175)
1 | KLF2 (3xFLAG-KLF2) (from UniProt Q60843) 2A C (T243A/S247A) | weaker | 
2 | KLF2 (3xFLAG-KLF2) (from UniProt Q60843) 2A N (T171A/S175A) |  | weaker
